# Measurements from the RNAGym collection of RNA variant scans (doi:10.1073/pnas.2313332121).
# Variants at the floor of the assay were thinned out.
# B1: TPR 5TU (parent)
# chain: GGAUCUUCUCGAUCUAACAAAAAAGACAAAUCUGCCACAAAGCUUGAGAGCAUCUUCGGAUGCAGAGGCGGCAGCCUUCGGUGGCGCGAUAGCGCCAACGUUCUCAACUAUGACACGCAAAACGCGUGCUCCGUUGAAUGGAGUUUAUCAUG
# Variants of: B1
# Assay: polymerase ribozyme fitness, log enrichment relative to wild type (log ratio); higher = more active; in vitro selection for triplet polymerase activity
# In short: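 PCR was used to build mutant libraries for each subunit of a heterodimeric triplet polymerase ribozyme, which were then transcribed. A single in vitro selection round, in triplicate, used a frozen incubation at −7 °C and recovered extended constructs by gel excision, streptavidin beads and RT-PCR. Fitness is the logarithm of genotype enrichment relative to wild-type enrichment, averaged over replicates with inverse-variance weights. The logarithm is base 2, and after Illumina sequencing only genotypes with ≥10 input reads and ≥1 read per output were kept.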
row,Variant,polymerase ribozyme fitness (log ratio)
1,G59C C76A C85G C118U,-2.89
2,G83C G117U C131U,-0.254
3,U55G C69A C87U C105A A138U,≤ -4.2
4,U6C U45A,-3.75
5,A41G U55A C57G,0.000485
6,C96A G124U C149G,-3.82
7,A19G A49G U56A A66G G67C C108U G136A C149A G152U,≤ -4.2
8,C38U G67A C69G G94A,≤ -4.2
9,G74A A106U A107U G133U,-3.93
10,C8A C79U A120C C125G A142U U146C,≤ -4.2
11,G62A C103A G152A,-3.85
12,A19C A22U C57G C87U G94U C103G U104G C129A,≤ -4.2
13,U53A G94U,-3.17
14,A21C C36U C57A C95U A97G A98U C125U,-3.21
15,C38U U61C C87U C96G G136U,≤ -4.2
16,A3U A37C G84U,-2.36
17,C32G C79G C103G C105U A119U G140U,≤ -4.2
18,U55G C85G G88U G92U C108U,≤ -4.2
19,C93U U104A,-1.88
20,A17C G86U,-0.8
21,A24G G92C,-2.81

row,Variant,polymerase ribozyme fitness (log ratio)
1,A52G C75U,-0.679
2,G46A C54A C57G G74U C87A A121G,≤ -4.2
3,U4C U15C C87A A121C,≤ -4.2
4,U6A C54U C85G A115C,-2.97
5,U7G C38U,-2.77
6,G11C A26U C69U,≤ -4.2
7,A22U G34A U55A G59C C95A C118G,-3.53
8,U13A C93U,-0.77
9,C38U A73U A107C C108U A115G,≤ -4.2
10,U55G C96U,-0.6
11,U55G G84C A107G A142C,≤ -4.2
12,U7G A17C A142U U146C,-3.89
13,A91U G141C,-4.05
14,U56C C87G,≤ -4.2
15,U53A C69G G83A G117U U145C,-3.13
16,C95U C96U,-1.18
17,A26U C38A,-2.37
18,A24U U53A,-0.894
19,G94A U102G G133A,≤ -4.2
20,C54U G58A C93U,-1.1
21,U82G G92C A113U,-3

row,Variant,polymerase ribozyme fitness (log ratio)
1,A52C G58U C75A C93A,≤ -4.2
2,U53A G68U G88U U90C,≤ -4.2
3,A17G G42U C51U C96U C108U,≤ -4.2
4,C105U C116U G133U A142C C149U,-4.08
5,A21U U33G G59C C72G A89C C96A A115C U146C,≤ -4.2
6,A23C A29G C96G U139G,-4.19
7,U7C C38U G62C,-3.44
8,A20U A37G A120C A142C,≤ -4.2
9,A60G U90C C93A A150U,-0.698
10,A29U A40C U56A G88A A121U G126A G136A,-3.9
11,A40C U45A G48A A49C U55A G62C U77A C118A U134C A142G,≤ -4.2
12,A19C A26C C38A C43G G74U G80C,≤ -4.2
13,C85A C95U,-1.98
14,A47C C85G C96A A98G,≤ -4.2
15,C18G,-0.169
16,A28U A49C U56A C95A C96U C108U G128U,≤ -4.2
17,G50C A73C C95G C105G,≤ -4.2
18,U56A A73U C76A A97U,≤ -4.2
19,C35U G59A C87U U144C,-1.17
20,C54U C85U U104G A119G G136A U146G A147G,-3.62
21,A16U C75U G86A,-2.59

row,Variant,polymerase ribozyme fitness (log ratio)
1,C5G G84A C96A,-1.4
2,C5G G68C C131U C132G U145G A150C,≤ -4.2
3,A21U C87A,-3.82
4,A147C U148A,-3.81
5,A21U A29C A89C U130C G140U G141A,≤ -4.2
6,C51A G59U A64G C85U C99G A113G A120G U127G G140U U148A,≤ -4.2
7,U33A C105U,-3.8
8,C5G G50C A122U C125U,-3.46
9,C76A A137U,-3.9
10,G94A G136U,-2.56
11,U82G A91U C114A A119U A121C G133C,≤ -4.2
12,G11C C36G U56A C57U G59A C96G,≤ -4.2
13,G58A G94A U135G U144C,-1.98
14,U15A G84A C93A U134G,-4.09
15,C14G C96U U134C,-2.72
16,G48C G86A G141C U148G G152A,-4.03
17,U15G U139A,≤ -4.2
18,C14U A73G C75G C87A A98G U111G,≤ -4.2
19,A41U U56A G84U C118A C125G,-4.09
20,A47C G80A C95U U104G A120G,-0.454
